Values quoted from earlier work in publication PMC10349181.

Biological target: Amyloid beta (Homo sapiens) (UniProt P05067)
Sequence (P05067 672-711): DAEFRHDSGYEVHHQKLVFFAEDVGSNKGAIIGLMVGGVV

Sequence of VEGF-A (P15692 whole entry): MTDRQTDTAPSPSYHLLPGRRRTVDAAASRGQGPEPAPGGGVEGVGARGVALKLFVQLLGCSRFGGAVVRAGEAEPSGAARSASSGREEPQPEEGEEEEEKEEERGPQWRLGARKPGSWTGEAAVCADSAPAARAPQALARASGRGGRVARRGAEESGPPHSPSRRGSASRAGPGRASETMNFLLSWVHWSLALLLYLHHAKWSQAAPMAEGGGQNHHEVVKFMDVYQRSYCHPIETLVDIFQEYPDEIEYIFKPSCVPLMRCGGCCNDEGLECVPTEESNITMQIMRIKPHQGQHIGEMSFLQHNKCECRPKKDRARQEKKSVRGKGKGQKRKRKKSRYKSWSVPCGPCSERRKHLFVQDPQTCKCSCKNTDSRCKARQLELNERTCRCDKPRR

Kd: 0.05 nM
Substance: VEGF-A (from UniProt P15692)
